The subject of assay [1] is A-498 (renal carcinoma) cells. In words: Proliferation of control cells, 3H-thymidine incorporation. It is filed as cell-based. As to conditions: endostatin 0.1-10 μg/ml. As for the experimental part: C-PAE cells were grown to confluence in DMEM with 10% fetal calf serum (FCS) and kept contact inhibited for 48 hours. Control cells were 786-O (renal carcinoma) cells, PC-3 cells, HPEC cells, and A-498 (renal carcinoma) cells. Cells were harvested with trypsinization (Life Technologies/Gibco BRL, Gaithersburg, Md., USA) at 37° C. for five minutes. A suspension of 12,500 cells in DMEM with 1% FCS was added to each well of a 24-well plate coated with 10 μg/ml fibronectin. The cells were incubated for 24 hours at 37° C. with 5% CO2 and 95% humidity. Medium was removed and replaced with DMEM containing 0.5% FCS and 3 ng/ml bFGF (R&D Systems, Minneapolis, Minn., USA). Unstimulated controls received no bFGF. Cells were treated with concentrations of Arresten or endostatin ranging from 0.01 to 50 μg/ml. All wells received 1 μCurie of ^3H-thymidine at the time of treatment. After 24 hours, medium was removed and the wells were washed with PBS. Cells were extracted with 1N NaOH and added to a scintillation vial containing 4 ml of ScintiVerse II (Fisher Scientific, Pittsburgh, Pa., USA) solution. Thymidine incorporation was measured using a scintillation counter. The results are shown in FIGS. 3A and 3B, which are a pair of graphs showing incorporation of ^3H-thymidine into C-PAE cells treated with varying amounts of Arresten (FIG. 3A) or endostatin (FIG. 3B). […]
In general terms: Incorporation of labelled thymidine or its analogues reports DNA synthesis.

The test system of a further assay is bovine endothelial cells. In words: Cap-dependent (LUC) / cap-independent (CAT) translation reporter. In kind it is cell-based. As to conditions: 4.5 μM; 21 hours.
The test system of a further assay is HEK 293 cells. In words: Proliferation of control cells, 3H-thymidine incorporation. It is filed as cell-based, human. The note with it: Canstatin doses up to 40 mg/ml. The method, then: Bovine calf […] endothelial (C-PAE) cells were grown to confluence in DMEM with 10% fetal calf serum (FCS) and kept contact inhibited for 48 hours. Cells were harvested by trypsinization (Life Technologies/Gibco BRL, Gaithersberg, Md., USA) at 37° C. for 5 minutes. A suspension of 12,500 cells in DMEM with 0.5% FCS was added to each well of a 24-well plate coated with 10 μg/ml fibronectin. The cells were incubated for 24 hours at 37° C. C. with 5% CO2 and 95% humidity. Medium was removed, and replaced with DMEM containing 0.5% FCS (unstimulated) or 10% FCS (stimulated and treated cells). 786-O, PC-3 and HEK 293 cells served as controls and were also grown to confluency, trypsinized and plated in the same manner. Cells were treated with concentrations of Canstatin or endostatin ranging from 0.025 to 40 mg/ml in triplicate. In thymidine incorporation experiments, all wells received […] of ^3H-thymidine at the time of treatment. After 24 hours, medium was removed and the wells were washed 3 times with PBS. Radioactivity was extracted with 1N NaOH and added to a scintillation vial containing 4 ml of ScintiVerse II (Fisher Scientific, Pittsburgh, Pa., USA) solution. Thymidine incorporation was measured using a scintillation counter.

The subject of a further assay is ERK. As to the kind of experiment: ERK activation (phospho-ERK western blot) in HUVEC. It is filed as cell-based, human. The note with it: 20 μg/ml. The method, then:
In order to further understand the molecular mechanisms involved in Canstatin's anti-proliferative and anti-migratory activities, the effect of Canstatin on ERK (Extracellular signal-Regulated Kinase) activation induced by 20% fetal bovine serum and endothelial mitogens was assessed. HUVEC cells were cultured overnight in McCoy's medium supplemented with 20% FBS, 1% penicillin/streptomycin, 100 μg/ml heparin and 50 μg/ml endothelial mitogen (Biomedical Technologies, Inc., Cambridge, Mass., USA). The following day, cells were washed and grown for 4 hours in low serum medium (McCoy's medium supplemented with 1% penicillin/streptomycin, 100 μg/ml heparin and 5% FBS). After 4 hours, the medium was replaced with fresh low serum medium with or without 20 μg/ml Canstatin. One hour later the serum concentration was adjusted to 20% and endothelial mitogen was added to a final concentration of 50 μg/ml. At 0, 5, 10, 25, and 40 minutes, the cells were washed with PBS and lysed with passive lysis mix (Promega, Madison, Wis., USA) plus leupeptin, PMSF, NaF, Na3VO4, β-glycerophosphate, and sodium pyrophosphate. Lysates were quantified for protein concentration and separated on 12% SDS-PAGE gels. Western blots of phospho-ERK were made for serum-treated and serum+Canstatin-treated HUVECs using anti-phospho-ERK antibodies (New England Biolabs, Beverly, Mass., USA). […]
(In general: A western blot detects proteins with antibodies after separation by electrophoresis.)

A further assay concerns PC-3 tumors. In words: PC-3 prostate tumor xenograft in SCID mice. It is filed as in vivo. As to conditions: 10 mg/kg. The method, then: Human prostate adenocarcinoma cells (PC-3 cells) were harvested from culture and 2 million cells in sterile PBS were injected subcutaneously into 7- to 9-week-old male SCID mice. The tumors grew for approximately 4 weeks after which animals were divided into groups of 4 mice. […] The control group received equal volumes of PBS each day. At the start of treatment (day 0), the tumors ranged in volume from 88 mm^3 to 135 mm^3 for the control mice, and 108 mm^3 to 149 mm^3 for the Canstatin-treated mice. Each group contained five mice. […] Canstatin-treated (▪) tumors increased only marginally in size relative to controls (□).

The subject of the next assay is WM-164 cells. As to the kind of experiment: MTT cell viability assay. It is filed as cell-based, human. From the text: The MTT assay was used to evaluate cell viability in C-PAE endothelial cells and WM-164 melanoma cells after treatment with Tumstatin, Tum-1, Tum-2, Tum-3 and Tum-4. The results are shown in FIGS. 34A and 34B, which are a pair of graphs showing the effect of increasing concentration (x-axis) of Tumstatin, Tum-1, Tum-2, Tum-3 and Tum-4 on the cell viability (y-axis) of C-PAE cells (FIG. 34A) and WM-164 cells (FIG. 34B). Each point represents the mean ±the standard error of the mean for triplicate wells.

B1: endostatin: tumor associated angiogenesis inhibitor used as comparator (protein, UniProt P39060 1572-1754, looked up)
Endostatin: HSHRDFQPVLHLVALNSPLSGGMRGIRGADFQCFQQARAVGLAGTFRAFLSSRLQDLYSIVRRADRAAVPIVNLKDELLFPSWEALFSGSEGPLKPGARIFSFDGKDVLRHPTWPQKSVWHGSDPNGRRLTESYCETWRTEAPSATGQASSLLGGRLLGQSAASCHHAYIVLCIENSFMTASK
modifications: Endostatin
In the case of B1, the effect on proliferation entry in assay [1] was “did not inhibit”. In addition, in the assay with bovine endothelial cells, the “decrease of cap-dependent translation of LUC” value is listed as “did not affect cap-dependent translation”.

B2: Canstatin: NC1 domain of the α2 chain of Type IV collagen (SEQ ID NO:6) (protein, listed as Homo sapiens)
chain: VSIGYLLVKHSQTDQEPMCPVGMNKLWSGYSLLYFEGQEKAHNQDLGLAGSCLARFSTMPFLYCNPGDVCYYASRNDKSYWLSTTAPLPMMPVAEDEIKPYISRCSVCEAPAIAIAVHSQDVSIPHCPAGWRSLWIGYSFLMHTAAGDEGGGQSLVSPGSCLEDFRATPFIECNGGRGTCHYYANKYSFWLTTIPEQSFQGSPSADTLKAGLIRTHISRCQVCMKNL
As to B2, the effect on proliferation result in the assay on HEK 293 cells is listed as “No significant effect”. In addition, the “effect on ERK activation” value in the assay on ERK was “did not alter early activation of ERK”. Also, in the assay on PC-3 tumors, the “fractional tumor volume as % of vehicle only-injected mice” value is recorded as 55% and the “fractional tumor volume, fold less than vehicle” value was found to be 1.8 fold.

B3: Tum-4: residues 181 to 244 of Tumstatin (SEQ ID NO:25) (protein)
chain: EFRASPFLECHGRGTCNYYSNSYSFWLASLNPERMFRKPIPSTVKAGELEKIISRCQVCMKKRH
modifications: Tum-4 (amino acids 181-244 of SEQ ID NO10)
In the case of B3, in the assay on WM-164 cells, the “effect on viability of WM-164 melanoma cells” value is reported as “decreased the viability”.
